Laboratory results from US20110263000.

Key:
[1] = target: T1, human fibrinogen, P02671
T1 chain 1: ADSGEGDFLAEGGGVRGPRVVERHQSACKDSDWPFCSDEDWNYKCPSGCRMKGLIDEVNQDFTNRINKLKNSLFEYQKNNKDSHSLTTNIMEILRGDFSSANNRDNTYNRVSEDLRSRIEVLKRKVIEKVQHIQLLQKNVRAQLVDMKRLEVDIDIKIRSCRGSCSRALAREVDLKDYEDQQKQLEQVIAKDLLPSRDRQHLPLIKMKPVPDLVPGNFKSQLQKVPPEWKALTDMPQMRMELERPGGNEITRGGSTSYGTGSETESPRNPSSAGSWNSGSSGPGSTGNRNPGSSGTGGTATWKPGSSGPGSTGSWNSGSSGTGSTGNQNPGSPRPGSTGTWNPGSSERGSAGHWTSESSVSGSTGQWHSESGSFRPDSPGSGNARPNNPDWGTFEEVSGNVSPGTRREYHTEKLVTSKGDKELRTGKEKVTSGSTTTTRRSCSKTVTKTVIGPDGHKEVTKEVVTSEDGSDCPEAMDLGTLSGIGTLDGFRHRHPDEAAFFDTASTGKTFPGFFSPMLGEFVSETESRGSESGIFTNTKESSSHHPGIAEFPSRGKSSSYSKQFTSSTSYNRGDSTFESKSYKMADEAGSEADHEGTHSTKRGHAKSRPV
T1 chain 2: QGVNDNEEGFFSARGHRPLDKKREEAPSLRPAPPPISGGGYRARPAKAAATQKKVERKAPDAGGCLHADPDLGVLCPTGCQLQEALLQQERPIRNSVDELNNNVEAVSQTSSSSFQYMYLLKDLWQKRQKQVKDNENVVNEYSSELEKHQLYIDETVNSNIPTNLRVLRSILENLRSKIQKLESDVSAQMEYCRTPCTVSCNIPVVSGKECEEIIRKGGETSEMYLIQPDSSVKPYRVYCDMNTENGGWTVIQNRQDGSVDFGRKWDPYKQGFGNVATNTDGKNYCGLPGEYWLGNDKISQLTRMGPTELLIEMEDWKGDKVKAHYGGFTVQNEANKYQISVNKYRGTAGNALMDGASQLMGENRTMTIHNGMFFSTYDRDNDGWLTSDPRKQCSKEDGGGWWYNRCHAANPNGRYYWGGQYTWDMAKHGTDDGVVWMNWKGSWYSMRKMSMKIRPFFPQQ
T1 chain 3: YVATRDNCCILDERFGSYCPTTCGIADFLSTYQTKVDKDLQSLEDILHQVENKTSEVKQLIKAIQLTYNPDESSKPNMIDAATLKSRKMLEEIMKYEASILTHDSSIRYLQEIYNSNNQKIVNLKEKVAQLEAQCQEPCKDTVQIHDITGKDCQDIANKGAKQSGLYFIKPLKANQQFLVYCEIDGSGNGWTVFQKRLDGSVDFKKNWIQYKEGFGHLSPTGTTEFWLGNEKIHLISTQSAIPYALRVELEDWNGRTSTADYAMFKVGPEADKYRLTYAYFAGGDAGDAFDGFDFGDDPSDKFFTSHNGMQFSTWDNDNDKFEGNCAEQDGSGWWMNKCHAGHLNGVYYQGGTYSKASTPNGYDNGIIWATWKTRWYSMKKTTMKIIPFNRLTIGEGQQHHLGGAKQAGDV

[2] = target: T2, bovine fibrinogen (Sigma Company), P02672
T2 chain 1: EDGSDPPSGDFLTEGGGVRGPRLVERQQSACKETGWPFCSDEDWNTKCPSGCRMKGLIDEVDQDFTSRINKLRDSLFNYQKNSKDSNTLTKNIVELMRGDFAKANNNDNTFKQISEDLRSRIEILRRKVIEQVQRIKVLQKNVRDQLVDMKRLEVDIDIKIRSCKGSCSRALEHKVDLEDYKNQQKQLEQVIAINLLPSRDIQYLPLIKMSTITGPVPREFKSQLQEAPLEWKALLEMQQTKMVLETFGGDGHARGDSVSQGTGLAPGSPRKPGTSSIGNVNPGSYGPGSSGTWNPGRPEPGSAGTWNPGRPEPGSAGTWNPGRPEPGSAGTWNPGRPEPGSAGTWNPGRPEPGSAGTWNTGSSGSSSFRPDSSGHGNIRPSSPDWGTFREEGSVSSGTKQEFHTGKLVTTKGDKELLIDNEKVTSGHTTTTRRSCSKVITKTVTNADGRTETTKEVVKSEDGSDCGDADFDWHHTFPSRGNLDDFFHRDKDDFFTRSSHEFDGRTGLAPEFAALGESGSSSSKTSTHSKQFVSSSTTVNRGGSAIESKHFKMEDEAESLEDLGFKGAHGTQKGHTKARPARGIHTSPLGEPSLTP
T2 chain 2: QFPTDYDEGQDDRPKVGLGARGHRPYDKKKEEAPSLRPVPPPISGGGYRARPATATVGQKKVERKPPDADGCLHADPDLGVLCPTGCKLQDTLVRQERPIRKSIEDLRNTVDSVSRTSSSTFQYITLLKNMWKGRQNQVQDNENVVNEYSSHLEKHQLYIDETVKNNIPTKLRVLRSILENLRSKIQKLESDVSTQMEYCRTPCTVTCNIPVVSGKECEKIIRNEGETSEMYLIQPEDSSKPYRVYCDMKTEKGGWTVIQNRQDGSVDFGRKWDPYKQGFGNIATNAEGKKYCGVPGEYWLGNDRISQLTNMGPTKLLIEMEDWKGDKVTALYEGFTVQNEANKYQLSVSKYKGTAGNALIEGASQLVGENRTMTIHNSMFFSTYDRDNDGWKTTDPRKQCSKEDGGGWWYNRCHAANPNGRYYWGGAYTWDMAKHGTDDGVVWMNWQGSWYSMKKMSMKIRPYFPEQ
T2 chain 3: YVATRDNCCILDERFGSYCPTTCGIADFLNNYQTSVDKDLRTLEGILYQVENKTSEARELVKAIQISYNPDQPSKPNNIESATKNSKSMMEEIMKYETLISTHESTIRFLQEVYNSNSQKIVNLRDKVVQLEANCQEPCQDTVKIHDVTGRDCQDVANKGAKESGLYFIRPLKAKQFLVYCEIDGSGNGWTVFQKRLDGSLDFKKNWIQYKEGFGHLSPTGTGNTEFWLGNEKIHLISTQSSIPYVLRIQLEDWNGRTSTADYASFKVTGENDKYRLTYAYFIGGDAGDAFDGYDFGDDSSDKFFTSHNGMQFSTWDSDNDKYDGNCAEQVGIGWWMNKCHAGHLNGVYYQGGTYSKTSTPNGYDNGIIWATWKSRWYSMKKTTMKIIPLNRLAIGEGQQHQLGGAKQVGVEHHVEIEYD

B1: hemocoagulase of Agkistrodon acutus (protein)
chain 1: DCSSGWSSYEGHCYKVFKQSKTWADAESFCTKQVNGGHLVSLESSGEADFVGQLLAQKLKSAKLHVWLGLRAQNKEKQCSLQWSDGSSLSYENWLEEESKKCLGVHLETGFHKWENFYCEQQDPFVCEA
chain 2: DCPSDWSSYEGHCYKPFNEPKNWADAENFCTKQHTGGHLVSFQSTEEADFVVKLAFQTFDYGLFWFGLSKLWNQCNWQWSNAAMLKYTDWAEESYCVYFKSTNNKWRSLTCRMLANFVCEFQA
hydrolysis of human fibrinogen, SDS-PAGE after 0.5 h, 1 h, 2 h and 4 h at 37° C. [1]: After the fibrinogen was treated with the hemocoagulase (1 unit) for 0.5 h and 1 h, the band of alpha subunit became gradually light, and after being treated for 2 h and 4 h, the band of alpha subunit disappeared completely | Agglutination time (tube 1#, 10 µl distilled water added) [2]: 50 s | Agglutination time (tube 2#, 10 µl isopropanol added) [2]: 50 s | Agglutination time (tube 3#, 10 µl PMSF added) [2]: more than 600 seconds
